What was measured:
[1] = target: soluble DC-SIGN tetramer (entire extracellular domain including the α-helical neck region) (UniProt Q9NNX6); assay: ELISA; DC-SIGN or DC-SIGNR (tetramer or monomer) coated (5, 2.5, 1.25, 0.625 µg/well, carbonate-bicarbonate buffer pH 9.6); ghA, ghB, ghC or mutants 2.5 µg/100 µl in 50 mM NaCl, 100 mM Tris-HCl pH 7.5, 5 mM CaCl2; 37°C […] then 4°C […]; detected with anti-MBP; percent binding against the wild-type module as 100%
[2] = target: soluble DC-SIGNR tetramer (entire extracellular domain including the α-helical neck region) (UniProt Q9H2X3); assay: as above
[3] = target: T1, soluble DC-SIGN tetramer (entire extracellular domain including the α-helical neck region) (UniProt Q9NNX6 59-404); assay: ELISA; DC-SIGN or DC-SIGNR (tetramer or monomer) coated (5, 2.5, 1.25, 0.625 µg/well, carbonate-bicarbonate buffer pH 9.6); ghA, ghB, ghC or mutants 2.5 µg/100 µl in 50 mM NaCl, 100 mM Tris-HCl pH 7.5, 5 mM CaCl2; 37°C 1.5 h then 4°C 1.5 h; detected with anti-MBP; percent binding against the wild-type module as 100%; settings: both partners purified
T1 construct: DC-SIGN, entire extracellular domain (α-helical neck region and carbohydrate recognition domain); also called DC-SIGN ECD; tetrameric DC-SIGN
T1 sequence (looked up): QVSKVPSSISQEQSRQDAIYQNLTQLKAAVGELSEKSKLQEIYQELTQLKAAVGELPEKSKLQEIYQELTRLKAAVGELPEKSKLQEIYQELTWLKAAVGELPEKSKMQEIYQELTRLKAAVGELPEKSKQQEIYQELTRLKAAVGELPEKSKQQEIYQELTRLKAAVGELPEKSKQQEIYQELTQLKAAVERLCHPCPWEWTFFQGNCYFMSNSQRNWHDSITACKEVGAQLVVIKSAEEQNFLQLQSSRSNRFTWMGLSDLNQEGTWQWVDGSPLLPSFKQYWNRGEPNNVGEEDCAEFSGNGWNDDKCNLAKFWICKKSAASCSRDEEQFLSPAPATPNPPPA

[4] = target: T2, soluble DC-SIGNR tetramer (entire extracellular domain including the α-helical neck region) (UniProt Q9H2X3 71-399); assay: as above; settings: both partners purified
T2 construct: DC-SIGNR (DC-SIGN-related), entire extracellular domain (α-helical neck region and carbohydrate recognition domain); also called DC-SIGNR ECD
T2 sequence (looked up): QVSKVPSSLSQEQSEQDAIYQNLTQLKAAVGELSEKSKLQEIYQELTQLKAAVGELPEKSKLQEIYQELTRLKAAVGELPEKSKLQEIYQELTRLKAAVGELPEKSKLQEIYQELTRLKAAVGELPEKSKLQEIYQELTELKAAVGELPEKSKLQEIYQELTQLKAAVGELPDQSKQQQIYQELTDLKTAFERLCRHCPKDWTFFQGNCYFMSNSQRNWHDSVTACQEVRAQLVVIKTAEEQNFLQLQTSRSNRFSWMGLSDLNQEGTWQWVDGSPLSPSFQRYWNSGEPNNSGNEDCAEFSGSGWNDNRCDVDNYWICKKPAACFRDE

**Q.** With “ghA substitution mutant Arg^A162Ala (from UniProt P02745 23-245) (domain or fragment)” as the molecule, how does the % binding (wild-type module = 100%) [1] read?
**A.** 77.7%

**Q.** And the % binding (wild-type module = 100%) [2]?
**A.** 73.2%

**Q.** With “ghA substitution mutant Arg^A162Glu (from UniProt P02745 23-245) (domain or fragment)” as the molecule, how does the % binding (wild-type module = 100%) [1] read?
**A.** 66.4%

**Q.** And the % binding (wild-type module = 100%) [2]?
**A.** 94.8%

**Q.** And the % reduction in binding against wild-type ghA (at 5 µg of DC-SIGNR) [2]?
**A.** 15%

**Q.** For “ghB substitution mutant ArgB114Ala (from UniProt P02746 28-253) (domain or fragment)”, which % binding (wild-type module = 100%) [1] is on record?
**A.** 57.4%

**Q.** What about the % reduction in binding against wild-type ghB [1] of the same molecule?
**A.** 80%

**Q.** And the % binding (wild-type module = 100%) [2]?
**A.** 61.4%

**Q.** What does the source list for “ghB substitution mutant Arg^B114Gln (from UniProt P02746 28-253) (domain or fragment)”?
**A.** % binding (wild-type module = 100%) [1]: 52.5%; % reduction in binding against wild-type ghB [1]: 80%; % binding (wild-type module = 100%) [2]: 50.3%

**Q.** “ghB substitution mutant Arg^B129Ala (from UniProt P02746 28-253) (domain or fragment)” was tested. Which % binding (wild-type module = 100%) [1] did it give?
**A.** 75%

**Q.** And the % binding (wild-type module = 100%) [2]?
**A.** 92.5%

**Q.** “ghB substitution mutant Arg^B129Glu (from UniProt P02746 28-253) (domain or fragment)” was tested. Which % binding (wild-type module = 100%) [1] did it give?
**A.** 93.9%

**Q.** And the % binding (wild-type module = 100%) [2]?
**A.** 137%

**Q.** Which results are given for “ghB substitution mutant Arg^B163Ala (from UniProt P02746 28-253) (domain or fragment)”?
**A.** % binding (wild-type module = 100%) [1]: 68.8%; % binding (wild-type module = 100%) [2]: 120%

**Q.** Which results are given for “ghB substitution mutant Arg^B163Glu (from UniProt P02746 28-253) (domain or fragment)”?
**A.** % binding (wild-type module = 100%) [1]: 48.3%; % binding (wild-type module = 100%) [2]: 65.7%

**Q.** “ghB substitution mutant His^B117Asp (from UniProt P02746 28-253) (domain or fragment)” was tested. Which % binding (wild-type module = 100%) [1] did it give?
**A.** 36.4%

**Q.** What about the % binding (wild-type module = 100%) [2] of the same molecule?
**A.** 41%

**Q.** How did the % binding (wild-type module = 100%) [1] turn out when “ghB substitution mutant Tyr^B175Leu (from UniProt P02746 28-253) (domain or fragment)” was run?
**A.** 37.9%

**Q.** What about the % decrease in binding against wild-type ghB (at 0.625 µg of DC-SIGN) [1] of the same molecule?
**A.** < 90%

**Q.** What about the % reduction in binding against wild-type ghB [1] of the same molecule?
**A.** 82%

**Q.** And the % binding (wild-type module = 100%) [2]?
**A.** 37.2%

**Q.** And the % decrease in binding against wild-type ghB (at 0.625 µg of DC-SIGNR) [2]?
**A.** < 90%

**Q.** Which results are given for “ghC substitution mutant Arg^156Glu (from UniProt P02747 29-245) (domain or fragment)”?
**A.** % binding (wild-type module = 100%) [1]: 101%; % binding (wild-type module = 100%) [2]: 75.8%

**Q.** Which results are given for “ghC substitution mutant His^101Ala (from UniProt P02747 29-245) (domain or fragment)”?
**A.** % binding (wild-type module = 100%) [1]: 90.2%; % binding (wild-type module = 100%) [2]: 113%

**Q.** How did the % binding (wild-type module = 100%) [1] turn out when “ghC substitution mutant Leu^170Glu (domain or fragment)” was run?
**A.** 78.3%

**Q.** And the % binding (wild-type module = 100%) [2]?
**A.** 79.8%

B1: recombinant globular head module ghA of human C1q, fused to maltose-binding protein (domain or fragment, UniProt P02745 110-245, looked up)
chain: KDQPRPAFSAIRRNPPMGGNVVIFDTVITNQEEPYQNHSGRFVCTVPGYYYFTFQVLSQWEICLSIVSSSRGQVRRSLGFCDTTNKGLFQVVSGGMVLQLQQGDQVWVEKDPKKGHIYQGSEADSVFSGFLIFPSA
notes: globular head region of the A chain of human C1q (ghA module); as I recall ghA is residues 88-223 of the mature A chain with MBP at the N-terminus; source: E. coli BL21, purified (amylose resin)
**Q.** For B1, which “% binding (wild-type module = 100%)” value [3] is on record?
**A.** 100%

**Q.** What about the “% binding (wild-type module = 100%)” value [4] of the same molecule?
**A.** 100%

B2: recombinant globular head module ghC of human C1q, fused to maltose-binding protein (domain or fragment, UniProt P02747 115-245, looked up)
chain: KQKFQSVFTVTRQTHQPPAPNSLIRFNAVLTNPQGDYDTSTGKFTCKVPGLYYFVYHASHTANLCVLLYRSGVKVVTFCGHTSKTNQVNSGGVLLRLQVGEEVWLAVNDYYDMVGIQGSDSVFSGFLLFPD
notes: globular head region of the C chain of human C1q (ghC module); as I recall ghC is residues 87-217 of the mature C chain with MBP at the N-terminus; source: E. coli BL21, purified (amylose resin)
**Q.** With B2 as the molecule, how does the “% binding (wild-type module = 100%)” value [3] read?
**A.** 100%

**Q.** What about the “% binding (wild-type module = 100%)” value [4] of the same molecule?
**A.** 100%

B3: recombinant globular head module ghB of human C1q, fused to maltose-binding protein (domain or fragment, UniProt P02746 117-253, looked up)
chain: KATQKIAFSATRTINVPLRRDQTIRFDHVITNMNNNYEPRSGKFTCKVPGLYYFTYHASSRGNLCVNLMRGRERAQKVVTFCDYAYNTFQVTTGGMVLKLEQGENVFLQATDKNSLLGMEGANSIFSGFLLFPDMEA
notes: globular head region of the B chain of human C1q (ghB module); source: E. coli BL21, purified (amylose resin)
**Q.** How did the “% binding (wild-type module = 100%)” value [3] turn out when B3 was run?
**A.** 100%

**Q.** And the “% binding (wild-type module = 100%)” value [4]?
**A.** 100%

B4: ghB substitution mutant Leu^B136Gly (domain or fragment)
chain: KATQKIAFSATRTINVPLRRDQTIRFDHVITNMNNNYEPRSGKFTCGVPGLYYFTYHASSRGNLCVNLMRGRERAQKVVTFCDYAYNTFQVTTGGMVLKLEQGENVFLQATDKNSLLGMEGANSIFSGFLLFPDMEA
**Q.** B4 was tested. Which “% binding (wild-type module = 100%)” value [3] did it give?
**A.** 47.7%

**Q.** What about the “% binding (wild-type module = 100%)” value [4] of the same molecule?
**A.** 54%

Source: paper PMC5177617, “Complement Protein C1q Interacts with DC-SIGN via Its Globular Domain and Thus May Interfere with HIV-1 Transmission” (Frontiers in Immunology, 2016)
